In US20130344055A1, “ANTIMICROBIAL AGENTS” (priority 2010, published 2013):

What was measured:
[1] = tested on: P. aeruginosa PAO1p cells; assay: Antimicrobial activity of different peptide stretches; conditions: 30 minutes at room temperature; for Antimicrobial effects against P. aeruginosa (relative inactivation): peptide at 3 μM/L (equimolar to AMP)
Method: The bacteria colonies on the agar plates were counted after an overnight incubation at 37° C. Based on the counted cell numbers the antibacterial activity as the relative inactivation in logarithmic units (=log 10N0/Ni with N0=number of untreated cells (of the control) and Ni=number of treated cells, both counted after incubation) is calculated. The reduction in the number of bacteria colonies after treatment with a peptide stretch is indicative for an antimicrobial activity of the peptide stretch, because the bacterial cells are lysed due to the treatment with the peptide stretch. All samples were replicated in four fold.

Salmonella bacteria = assay: In vitro antibacterial activity of STM0016 fusion variants; format: cell-based; conditions: with EDTA 0.5 mM; 10^6 cells/ml; 30 minutes at RT
Method: Exponential growing Gram-negative bacterial cells (OD600 nm=0.6) were 100-fold diluted to a final density of about 10^6 cells/ml in 5 mM HEPES pH 7.4 and incubated for 30 minutes at room temperature without shaking with the different modified OBPgpLYS variants (in Elution Buffer in an end concentration of 1500 nM). After incubation cell suspensions and as a control untreated bacterial cells without any added modified OBPgpLYS variant were diluted three times (respectively 10^5-10^4-10^3 cells/ml) in 1× concentrated PBS buffer and 100 μl of each dilution was plated out on LB-medium. […] All samples were replicated in threefold. Averages +/− standard deviations are represented.
The purification of the fusion proteins and the antimicrobial activity assay was performed as described in Example 1.

Listeria bacteria = assay: In vitro antibacterial activity of Ply511 fusion variants; format: cell-based; conditions: with EDTA 0.5 mM; 10^6 cells/ml; 30 minutes at RT

PK: polycationic peptide KRKKRKKRK
Antimicrobial effects against P. aeruginosa (relative inactivation) [1]: no or only minor antimicrobial effects

STM0016-Melittin: STM0016 fusion variant with one peptide stretch, Melittin
Average log reduction, Salmonella (Salmonella bacteria): +/− (+/−: <1 log)

PK2: polycationic peptide KRKKRKKRKRSKRKKRKKRK
Antimicrobial activity against P. aeruginosa (relative inactivation) [1]: same antimicrobial activity against P. aeruginosa as SMAP-29 used in a concentration of 3 mmol/L | Antimicrobial effects against P. aeruginosa (relative inactivation) [1]: no or only minor antimicrobial effects

B1: P1y511-Magainin: Ply511 fusion variant with one peptide stretch, Magainin (protein)
chain: MVKYTVENKIIAGLPKGKLKGANFVIAHETANSKSTIDNEVSYMTRNWKNAFVTHFVGGGGRVVQVANVNYVSWGAGQYANSYSYAQVELCRTSNATTFKKDYEVYCQLLVDLAKKAGIPITLDSGSKTSDKGIKSHKWVADKLGGTTHQDPYAYLSSWGISKAQFASDLAKVSGGGNTGTAPAKPSTPAPKPSTPSTNLDKLGLVDYMNAKKMDSSYSNRDKLAKQYGIANYSGTASQNTTLLSKIKGGAPKPSTPAPKPSTSTAKKIYFPPNKGNWSVYPTNKAPVKANAIGAINPTKFGGLTYTIQKDRGNGVYEIQTDQFGRVQVYGAPSTGAVIKKGIGKFLHSAKKFGKAFVGEIMNS
Average log reduction, Listeria (Listeria bacteria): ++ (++: 2-3 log)

B2: P1y511: endolysin Ply511 (protein)
chain: MVKYTVENKIIAGLPKGKLKGANFVIAHETANSKSTIDNEVSYMTRNWKNAFVTHFVGGGGRVVQVANVNYVSWGAGQYANSYSYAQVELCRTSNATTFKKDYEVYCQLLVDLAKKAGIPITLDSGSKTSDKGIKSHKWVADKLGGTTHQDPYAYLSSWGISKAQFASDLAKVSGGGNTGTAPAKPSTPAPKPSTPSTNLDKLGLVDYMNAKKMDSSYSNRDKLAKQYGIANYSGTASQNTTLLSKIKGGAPKPSTPAPKPSTSTAKKIYFPPNKGNWSVYPTNKAPVKANAIGAINPTKFGGLTYTIQKDRGNGVYEIQTDQFGRVQVYGAPSTGAVIKK
modifications: Listeria monocytogenes Phage A511
notes: endolysin Ply511
Average log reduction, Listeria (Listeria bacteria): + (+: 1 log)

B3: P1y511-BuforinII-Magainin: Ply511 with Buforin II C-terminal of the enzyme, followed by Magainin (protein)
chain: MVKYTVENKIIAGLPKGKLKGANFVIAHETANSKSTIDNEVSYMTRNWKNAFVTHFVGGGGRVVQVANVNYVSWGAGQYANSYSYAQVELCRTSNATTFKKDYEVYCQLLVDLAKKAGIPITLDSGSKTSDKGIKSHKWVADKLGGTTHQDPYAYLSSWGISKAQFASDLAKVSGGGNTGTAPAKPSTPAPKPSTPSTNLDKLGLVDYMNAKKMDSSYSNRDKLAKQYGIANYSGTASQNTTLLSKIKGGAPKPSTPAPKPSTSTAKKIYFPPNKGNWSVYPTNKAPVKANAIGAINPTKFGGLTYTIQKDRGNGVYEIQTDQFGRVQVYGAPSTGAVIKKTRSSRAGLQFPVGRVHRLLRKGIGKFLHSAKKFGKAFVGEIMNS
Average log reduction, Listeria (Listeria bacteria): +++ (+++: 4 or more logs)

B4: P1y511-BuforinII: Ply511 fusion variant with one peptide stretch, Buforin II (protein)
chain: MVKYTVENKIIAGLPKGKLKGANFVIAHETANSKSTIDNEVSYMTRNWKNAFVTHFVGGGGRVVQVANVNYVSWGAGQYANSYSYAQVELCRTSNATTFKKDYEVYCQLLVDLAKKAGIPITLDSGSKTSDKGIKSHKWVADKLGGTTHQDPYAYLSSWGISKAQFASDLAKVSGGGNTGTAPAKPSTPAPKPSTPSTNLDKLGLVDYMNAKKMDSSYSNRDKLAKQYGIANYSGTASQNTTLLSKIKGGAPKPSTPAPKPSTSTAKKIYFPPNKGNWSVYPTNKAPVKANAIGAINPTKFGGLTYTIQKDRGNGVYEIQTDQFGRVQVYGAPSTGAVIKKTRSSRAGLQFPVGRVHRLLRK
Average log reduction, Listeria (Listeria bacteria): ++ (++: 2-3 log)

B5: STM0016-LL37: STM0016 fusion variant with one peptide stretch, LL37 (protein)
chain: MNPIIDGIIALEGGYVFNPKDKGGATHWGITEATARAHGYAGDMRDLTHAEAYAILEEDYWIKPGFDVISTLSWPVSFELCDAAVNIGAYHPSAWLQRWLNVFNHEGKRYPDIHVDGNIGPRTLAALEHYLAWRGQEGEAVLVKALNCSQGTYYLNVAEKNHNNEQFIYGWIKNRVTLLGDFFRKSKEKIGKEFKRIVQRIKDFLRNLVPRTES
Average log reduction, Salmonella (Salmonella bacteria): + (+: 1 log)
